Values of other authors, collected in publication PMC12537681.

Target: Spike glycoprotein trimer (Severe acute respiratory syndrome coronavirus 2) (UniProt P0DTC2)

## TLR4 (from UniProt O00206)
  Kd: 300 nM
